Source: patent US12410262B2, “Peptide conjugates of cytotoxins as therapeutics” (Cybrexa 2, Inc., priority 2019, dated 2025)

Tests used:
HCT116 = assay: cells; assay type: cell-based, human; conditions: 96 h
Procedure: Cells were plated in 96 well black walled-clear bottom plates (Griener), DLD-1 WT cells at 2500 cells per well, FaDu, and HeLa cells at 5000 cells per well, and HCT116 at 3000 cells per well, in growth media containing 10% FBS. Cells were allowed to adhere at room temperature for 60 minutes before returning to a 37 C, 5% CO2 incubator. After 24 hours, media was removed and replaced with fresh growth media containing various drug concentrations. Each drug concentration was added in triplicate. Non-drug treated controls contained growth media only. Cells were returned to the incubator. Ninety-six hours after addition of drug, cells were fixed with 4% paraformaldehyde for 20 minutes and stained with Hoechst at 1 ug/mL. The plates were imaged on a Cytation 5 auto imager (BioTek) and cells were counted using CellProfiler (http://cellprofiler.org). The percent cell growth delay was calculated and data plotted using GraphPad Prism

Plasma stability studies = assay type: in vitro ADME; conditions: rat plasma, 100 μM conjugate, 37° C.
Procedure: A 20 mM stock of conjugate was prepared in 100% DMSO. The stocks were subsequently diluted in 100 mM Tris, pH 7.5 to yield an intermediate dilution of 500 μM and then diluted 1:5 directly into rat plasma to yield a final concentration of 100 μM of conjugate. Samples were mixed by inversion and incubated at 37° C. for up to 24 h. 50 μL samples were aliquoted into siliconized microfuge tubes at time 0, 4, and 24 h and immediately frozen at −80° C.
(§1) Samples were thawed and extracted as follows: 8 μL of 25% phosphoric acid followed by 117 μL of 100% Acetonitrile/0.1% TFA was added to each sample, mixed and centrifuged at 13000×G for 10 minutes. The supernatant was pipetted into 0.2 mL HPLC vials and placed on a Perkin Elmer Flexar HPLC autosampler. The following table summarizes HPLC conditions:
Data was analyzed by calculating the percentage reduction of compound (area of retention time peak of incubated conjugate/area of retention time peak of conjugate at time 0)×100.

[1] = Glutathione cleavage study; assay type: in vitro ADME; conditions: Tris buffer with 10 mM glutathione, Glutathione Challenge (10 mM), 100 μM conjugate, Tris pH 7.5, 37° C.
Procedure: A 20 mM stock of conjugate was prepared in 100% DMSO. The stocks were subsequently diluted in 100 mM Tris, pH 7.5, to yield an intermediate dilution of 500 μM followed by an additional dilution of 1:5 in 100 mM Tris, pH 7.5 to give a final concentration of 100 μM of conjugate. 100 mM glutathione was prepared immediately prior to use in H2O and diluted 1:10 in challenge samples for a final glutathione challenge concentration of 10 mM. Samples were mixed by inversion and incubated at 37° C. for up to 24 hrs. […]
as §1, with “100% acetonitrile/0.1%” for “100% Acetonitrile/0.1%”, “TFA were” for “TFA was”
Data was analyzed by calculating the percentage reduction of compound (area of retention time peak of […] conjugate/area of retention time peak of conjugate at time 0)×100.

Row | SMILES | IC50 (HCT116) [nM] | remaining at 4 h, 100 µM (Plasma stability studies) [%] | remaining at 24 h, 100 µM (Plasma stability studies) [%] | remaining at 4 h, 100 µM [1] [%] | remaining at 24 h, 100 µM [1] [%]
1 | CC[C@@]1(O)C(=O)OCc2c1cc1n(c2=O)Cc2c-1nc1cc(F)c(C)c3c1c2[C@@H](NC(=O)O[C@H]1COCC[C@@H]1SSC[C@H](NC(=O)[C@H](Cc1c[nH]c2ccccc12)NC(=O)[C@H](CC(C)C)NC(=O)[C@H](CC(C)C)NC(=O)[C@H](CC(=O)O)NC(=O)[C@H](CC(C)C)NC(=O)[C@H](CC(C)C)NC(=O)[C@H](CC(C)C)NC(=O)[C@@H](NC(=O)[C@H](CC(=O)O)NC(=O)[C@@H](NC(=O)[C@@H]1CCCN1C(=O)[C@H](Cc1ccccc1)NC(=O)[C@H](CC(C)C)NC(=O)[C@H](CC(C)C)NC(=O)[C@H](CC(=O)O)NC(=O)[C@H](CC(C)C)NC(=O)[C@H](Cc1ccc(O)cc1)NC(=O)[C@H](C)NC(=O)[C@H](CCCNC(=N)N)NC(=O)[C@H](Cc1c[nH]c2ccccc12)NC(=O)[C@@H]1CCCN1C(=O)[C@H](CC(N)=O)NC(=O)[C@H](CCC(N)=O)NC(=O)[C@H](CC(=O)O)NC(=O)[C@H](CC(=O)O)NC(=O)[C@H](C)N)[C@@H](C)O)[C@@H](C)O)C(=O)NCC(=O)O)CC3 [Compound 21] | 3.1 | 101 | 98.2 | 9.5 | 12.6
2 | CC[C@@]1(O)C(=O)OCc2c1cc1n(c2=O)Cc2c-1nc1cc(F)c(C)c3c1c2[C@@H](NC(=O)O[C@@H]1COC[C@H]1SSC[C@H](NC(=O)[C@H](Cc1c[nH]c2ccccc12)NC(=O)[C@H](CC(C)C)NC(=O)[C@H](CC(C)C)NC(=O)[C@H](CC(=O)O)NC(=O)[C@H](CC(C)C)NC(=O)[C@H](CC(C)C)NC(=O)[C@H](CC(C)C)NC(=O)[C@@H](NC(=O)[C@H](CC(=O)O)NC(=O)[C@@H](NC(=O)[C@@H]1CCCN1C(=O)[C@H](Cc1ccccc1)NC(=O)[C@H](CC(C)C)NC(=O)[C@H](CC(C)C)NC(=O)[C@H](CC(=O)O)NC(=O)[C@H](CC(C)C)NC(=O)[C@H](Cc1ccc(O)cc1)NC(=O)[C@H](C)NC(=O)[C@H](CCCNC(=N)N)NC(=O)[C@H](Cc1c[nH]c2ccccc12)NC(=O)[C@@H]1CCCN1C(=O)[C@H](CC(N)=O)NC(=O)[C@H](CCC(N)=O)NC(=O)[C@H](CC(=O)O)NC(=O)[C@H](CC(=O)O)NC(=O)[C@H](C)N)[C@@H](C)O)[C@@H](C)O)C(=O)NCC(=O)O)CC3 [Compound 16] | 1.7 | 116 | 106 | 3.4 | 2
3 | CC[C@@]1(O)C(=O)OCc2c1cc1n(c2=O)Cc2c-1nc1cc(F)c(C)c3c1c2[C@@H](NC(=O)O[C@@H]1COCC[C@H]1SSC[C@H](NC(=O)[C@H](Cc1c[nH]c2ccccc12)NC(=O)[C@H](CC(C)C)NC(=O)[C@H](CC(C)C)NC(=O)[C@H](CC(=O)O)NC(=O)[C@H](CC(C)C)NC(=O)[C@H](CC(C)C)NC(=O)[C@H](CC(C)C)NC(=O)[C@@H](NC(=O)[C@H](CC(=O)O)NC(=O)[C@@H](NC(=O)[C@@H]1CCCN1C(=O)[C@H](Cc1ccccc1)NC(=O)[C@H](CC(C)C)NC(=O)[C@H](CC(C)C)NC(=O)[C@H](CC(=O)O)NC(=O)[C@H](CC(C)C)NC(=O)[C@H](Cc1ccc(O)cc1)NC(=O)[C@H](C)NC(=O)[C@H](CCCNC(=N)N)NC(=O)[C@H](Cc1c[nH]c2ccccc12)NC(=O)[C@@H]1CCCN1C(=O)[C@H](CC(N)=O)NC(=O)[C@H](CCC(N)=O)NC(=O)[C@H](CC(=O)O)NC(=O)[C@H](CC(=O)O)NC(=O)[C@H](C)N)[C@@H](C)O)[C@@H](C)O)C(=O)NCC(=O)O)CC3 [Compound 20] | 7.9 | 98.7 | 95.8 | 5.2 | 8
4 | CC[C@@]1(O)C(=O)OCc2c1cc1n(c2=O)Cc2c-1nc1cc(F)c(C)c3c1c2[C@@H](NC(=O)O[C@H]1CCC[C@@H]1SSC[C@H](NC(=O)[C@H](Cc1c[nH]c2ccccc12)NC(=O)[C@H](CC(C)C)NC(=O)[C@H](CC(C)C)NC(=O)[C@H](CC(=O)O)NC(=O)[C@H](CC(C)C)NC(=O)[C@H](CC(C)C)NC(=O)[C@H](CC(C)C)NC(=O)[C@@H](NC(=O)[C@H](CC(=O)O)NC(=O)[C@@H](NC(=O)[C@@H]1CCCN1C(=O)[C@H](Cc1ccccc1)NC(=O)[C@H](CC(C)C)NC(=O)[C@H](CC(C)C)NC(=O)[C@H](CC(=O)O)NC(=O)[C@H](CC(C)C)NC(=O)[C@H](Cc1ccc(O)cc1)NC(=O)[C@H](C)NC(=O)[C@H](CCCNC(=N)N)NC(=O)[C@H](Cc1c[nH]c2ccccc12)NC(=O)[C@@H]1CCCN1C(=O)[C@H](CC(N)=O)NC(=O)[C@H](CCC(N)=O)NC(=O)[C@H](CC(=O)O)NC(=O)[C@H](CC(=O)O)NC(=O)[C@H](C)N)[C@@H](C)O)[C@@H](C)O)C(=O)NCC(=O)O)CC3 [Compound 15] | 1.7 | 105 | 103 | 19.4 | 8.3
5 | CC[C@@]1(O)C(=O)OCc2c1cc1n(c2=O)Cc2c-1nc1cc(F)c(C)c3c1c2[C@@H](NC(=O)O[C@@H]1CCc2ccccc2[C@H]1SSC[C@H](NC(=O)[C@H](Cc1c[nH]c2ccccc12)NC(=O)[C@H](CC(C)C)NC(=O)[C@H](CC(C)C)NC(=O)[C@H](CC(=O)O)NC(=O)[C@H](CC(C)C)NC(=O)[C@H](CC(C)C)NC(=O)[C@H](CC(C)C)NC(=O)[C@@H](NC(=O)[C@H](CC(=O)O)NC(=O)[C@@H](NC(=O)[C@@H]1CCCN1C(=O)[C@H](Cc1ccccc1)NC(=O)[C@H](CC(C)C)NC(=O)[C@H](CC(C)C)NC(=O)[C@H](CC(=O)O)NC(=O)[C@H](CC(C)C)NC(=O)[C@H](Cc1ccc(O)cc1)NC(=O)[C@H](C)NC(=O)[C@H](CCCNC(=N)N)NC(=O)[C@H](Cc1c[nH]c2ccccc12)NC(=O)[C@@H]1CCCN1C(=O)[C@H](CC(N)=O)NC(=O)[C@H](CCC(N)=O)NC(=O)[C@H](CC(=O)O)NC(=O)[C@H](CC(=O)O)NC(=O)[C@H](C)N)[C@@H](C)O)[C@@H](C)O)C(=O)NCC(=O)O)CC3 [Compound 25] | 2.9 | 103 | 104 | 42 | 4.1
6 | CC[C@@]1(O)C(=O)OCc2c1cc1n(c2=O)Cc2c-1nc1cc(F)c(C)c3c1c2[C@@H](NC(=O)O[C@H]1Cc2ccccc2C[C@@H]1SSC[C@H](NC(=O)[C@H](Cc1c[nH]c2ccccc12)NC(=O)[C@H](CC(C)C)NC(=O)[C@H](CC(C)C)NC(=O)[C@H](CC(=O)O)NC(=O)[C@H](CC(C)C)NC(=O)[C@H](CC(C)C)NC(=O)[C@H](CC(C)C)NC(=O)[C@@H](NC(=O)[C@H](CC(=O)O)NC(=O)[C@@H](NC(=O)[C@@H]1CCCN1C(=O)[C@H](Cc1ccccc1)NC(=O)[C@H](CC(C)C)NC(=O)[C@H](CC(C)C)NC(=O)[C@H](CC(=O)O)NC(=O)[C@H](CC(C)C)NC(=O)[C@H](Cc1ccc(O)cc1)NC(=O)[C@H](C)NC(=O)[C@H](CCCNC(=N)N)NC(=O)[C@H](Cc1c[nH]c2ccccc12)NC(=O)[C@@H]1CCCN1C(=O)[C@H](CC(N)=O)NC(=O)[C@H](CCC(N)=O)NC(=O)[C@H](CC(=O)O)NC(=O)[C@H](CC(=O)O)NC(=O)[C@H](C)N)[C@@H](C)O)[C@@H](C)O)C(=O)NCC(=O)O)CC3 [Compound 18] | 2.9 | 104 | 93 | 60.1 | 13
